Reference: the nanobody polyreactivity screen of Harvey et al. (2022)

experiment: yeast display, Sf9 membrane polyspecificity reagent, FACS + sequencing; frameworks hold sequencing errors
In short: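 A synthetic nanobody library was expressed on Saccharomyces cerevisiae BJ5465 by galactose induction for 36–48 hours. The library was stained for 1 hour at 4 °C with 10% biotinylated, detergent-solubilized Sf9 membrane reagent and enriched with streptavidin microbeads before FACS. Low and high (top ~1%) gates were set on anti-HA fluorescence for expression and streptavidin fluorescence for reagent binding, and each polyreactivity label reflects the gate of origin.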

Question: With “QVQLVESVGGLLQAGGSLRLSCADSGSTFTTNVMGWYRQAPGKERELVAAISKRGGSTFYADSVKGRFTISRDNAKNTVYRQMNSLKPEDTAVYYCKALRRGVRDPYGYWGQGTQVTVSS” as the sequence, how does the “polyreactivity (PSR sort gate)” value read?
Answer: high polyreactivity

Question: With “QVQLVESVGGLLQAGGTLRLSCAASGITFLDYGRGWYRQATGKERELVATINSGGSTNYADSVKGRFTISRDNAKHTVYLLMNSLKAEDTAVYYCDADYGSDYPKGDYWGQGTQVTVTS” as the sequence, how does the “polyreactivity (PSR sort gate)” value read?
Answer: low polyreactivity

Question: For “QVQLVESVGGLVQAAGSLRLSCAASGRIFSPYAMGWYRQAPGKESELVAAISWSGGTTYYADSVKGRFTISRDNAKNTVYLQMNSLKPEDTAVYYCAADLGYQDPLDYYWGQGTQVTVSS”, which “polyreactivity (PSR sort gate)” value is on record?
Answer: high polyreactivity

Question: For “QVQLVESVGGLVQAGGILRLSCAASGNTFPAYAMGWYRQAPGKERELVATISWSTGSTNYADSVKGRFTISRDTAKNTVYLQMNSLKPEDTAVYYCAASYWCYEYDYWGLGTQVTVSS”, which “polyreactivity (PSR sort gate)” value is on record?
Answer: low polyreactivity

Question: For “QVQLVESVGGLVQAGGRLRLSCAASGRIFSFYAMGWYRPAPGKEREFVAAITYSGGSSYYADSVKGRFTNSRDNAKKTVYLQMNSLKPEDTAVYYCAARYRYITKYDYWGQGTQVTVSS”, which “polyreactivity (PSR sort gate)” value is on record?
Answer: high polyreactivity

Question: For “QVQLVESVGGLVQAGGRLRLTCAASGFIFTHYAMVWYRQAPGKERELVAAISWNGGRTYYADSVKGRFTISRDNANITVYLQMNSLKPEDTAVYYCAARIYLSKSFNFWGQGTQVTVSS”, which “polyreactivity (PSR sort gate)” value is on record?
Answer: high polyreactivity

Question: Which “polyreactivity (PSR sort gate)” value does the source give for “QVQLVESVGGLVQAGGSHRLSCAASGLTFEWYTMGWYRQAPGKERELVAVITVSGSSTYYADSVKGRFTISRDNAKNTVYLQMNSLKPEDTAVYYCNADWSFYSYTLYDYWGQGTQVTVSS” here?
Answer: low polyreactivity

Question: For “QVQLVESVGGLVQAGGSLPLSSAASGSIFYRYALGWYRQAPGKERELVAAISDRSGSTYYADSVKGRFTISRDNAKNTVYLQMNSLKPEATAVYYCAASYNYRAAGYGLSRYYYWGQGTQVTVSS”, which “polyreactivity (PSR sort gate)” value is on record?
Answer: high polyreactivity

Question: With “QVQLVESVGGLVQAGGSLRFSCAASGFIFNYNALGWYRQAPGTERELVAAISGTGVRTYYADSVKGRFTISRDNAKNTVYLQMNSLKPEDTAVYYCNAYYGYIPVSGYRNDYWGQGTQVTVSS” as the sequence, how does the “polyreactivity (PSR sort gate)” value read?
Answer: low polyreactivity

Question: With “QVQLVESVGGLVQAGGSLRLICAASGRTFSRNAMGWYRQAPGKERELVAGISWRGTSTYYADSVKGRFTISRDNAKNTVFLQMNSLKPEDTAVYYCNRVFEYWSEYDYWGQGTQVTVSS” as the sequence, how does the “polyreactivity (PSR sort gate)” value read?
Answer: high polyreactivity

Question: With “QVQLVESVGGLVQAGGSLRLRCAASGSTFYKNAMGRYRQAPGIERELVAGISRRGGRTYYADSVKGRFTISRDNAKNTVYLQMNSLKPEDTAVFYCNTGHEVDEYDYWGQGTQVTVSS” as the sequence, how does the “polyreactivity (PSR sort gate)” value read?
Answer: low polyreactivity

Question: Which “polyreactivity (PSR sort gate)” value does the source give for “QVQLVESVGGLVQAGGSLRLSCAASGFIFKRYAMGWYRQAPGKERELVAAITGSGGSTYYADSVKGRFTISRDNAKNTVYLQMNSLKPEDTAVYYCARGNGGSLDYWGQGTQVTVSS” here?
Answer: high polyreactivity

Question: For “QVQLVESVGGLVQAGGSLRLSCAASGFIFYQNAMGWYRQAPGKERELVAAISTTGSRTYYADSVKGRFTISRDNAKNTVYLQMNSLKPEDTAVYYCNAPRRVNYDYWGQGTQVTVSS”, which “polyreactivity (PSR sort gate)” value is on record?
Answer: high polyreactivity

Question: With “QVQLVESVGGLVQAGGSLRLSCAASGFIIVEYDMGWYRQAPGKEREFVAAINFSGGSTYYADSVKGRFTISRDNAKNTVYLQMNSLKPEDNAVYYCAADVVRYYYTYYYWGQGTHVTVSS” as the sequence, how does the “polyreactivity (PSR sort gate)” value read?
Answer: low polyreactivity

Question: Which “polyreactivity (PSR sort gate)” value does the source give for “QVQLVESVGGLVQAGGSLRLSCAASGFTFGPYDMGWYRQAPGKERELVAVIIGGDSTNYADSVKGRFTISRDNAKNTVYLQMNSLKPEDTAVYYCAADYIDRVGWMDYWGQGTQVTVSS” here?
Answer: low polyreactivity

Question: For “QVQLVESVGGLVQAGGSLRLSCAASGFTFHLYAMGWYRPAPGKERELDAAISQSGDSTYYADSVKGRFTISRDNAKNTVYLQMNSLKPEDTAVYYVNADNDGVVWSYPFDFDYWGQGTQVTVSS”, which “polyreactivity (PSR sort gate)” value is on record?
Answer: low polyreactivity

Question: Which “polyreactivity (PSR sort gate)” value does the source give for “QVQLVESVGGLVQAGGSLRLSCAASGFTIGYNFMGWYRQAPGKERELVATISWNGARTYYADSVKGRFTISRDNAKNTVYLQMNSLKPEDTAVYYCAARRYYRGEYDYWGQGTQVTVSS” here?
Answer: low polyreactivity

Question: For “QVQLVESVGGLVQAGGSLRLSCAASGFTIYPYAMGWYRQAPGKERELVAAISSSGGNTYYADSVKGRFTISRDNAKNTVYLQMNSLKPEDTAVYYCNARVYRWAIAPDDDSWGQGTQVTVSS”, which “polyreactivity (PSR sort gate)” value is on record?
Answer: high polyreactivity

Question: For “QVQLVESVGGLVQAGGSLRLSCAASGGIFGVYAMGWYRQAPGKERELVAAISNSDTSTSYADSVMGRFTISRDIAKNTVYLQMNSVYPEDTAVYYCNADSPSLSGDYWGQGTQVTVSS”, which “polyreactivity (PSR sort gate)” value is on record?
Answer: low polyreactivity

Question: For “QVQLVESVGGLVQAGGSLRLSCAASGGIFWVYAMGWYRQAPGKERELVASISWNGGSTNYADSVKGLFTISRDNAKNTVYLQMNSLKPEDTAVYYCAAEYWTSYADYRYDYWGQGTQVTVSS”, which “polyreactivity (PSR sort gate)” value is on record?
Answer: low polyreactivity

Question: Which “polyreactivity (PSR sort gate)” value does the source give for “QVQLVESVGGLVQAGGSLRLSCAASGGTFKTNAMGWYIQAPGKERELVAAITGSGTSTYYADSVKGRFTISRDNAKNTVYLQMNSLKPEDTAVYYCAADKLYQPGIGDDYWGQGNQVTVSS” here?
Answer: low polyreactivity

Question: For “QVQLVESVGGLVQAGGSLRLSCAASGGTFSFNAMGWYRQAPGKERELVAAITQTGDRTYYADSVKGRFTISRDNAKNTVYLQMNSLKPEDTAVYYCAADDIYYQGIYRGSEFDYRGQGTQVTVSS”, which “polyreactivity (PSR sort gate)” value is on record?
Answer: low polyreactivity

Question: With “QVQLVESVGGLVQAGGSLRLSCAASGIFVDNAMGWYRQAPGTETELVAPITSSTDSTYYADSVKGRFTISRDNAKNTVALQMNSLKPEDTAVYYCAVARPGGFYFLVHYGYGYWGQGTQVTVSS” as the sequence, how does the “polyreactivity (PSR sort gate)” value read?
Answer: low polyreactivity

Question: For “QVQLVESVGGLVQAGGSLRLSCAASGIIFSCYAMGWYRQAPGKERELVAAISSSGGTTFYADSVKGRFTISRDNAKNTVYLQMNSLKPVDTAVYYCAVVGPPYYTWRVWRPAYDYWGQGTQVTVSS”, which “polyreactivity (PSR sort gate)” value is on record?
Answer: high polyreactivity

Question: With “QVQLVESVGGLVQAGGSLRLSCAASGITFLQYAMGWYIQAPGKERELVATINSGGSTNYADSVKGRFTISRDNAKNTVYLQMNSLKPEDTAVYYCAADYGSDYTKGDYWGQGTQVTVSS” as the sequence, how does the “polyreactivity (PSR sort gate)” value read?
Answer: low polyreactivity

Question: For “QVQLVESVGGLVQAGGSLRLSCAASGITFNRYAMGWYRQAPGKERELVAAITGGGSRTFYADSVKGRFTISGDNAKNTVDLQMNSLKPEDTAVYYCAKGLSTGRAYRGYDYWGQGTQVTVSS”, which “polyreactivity (PSR sort gate)” value is on record?
Answer: high polyreactivity

Question: Which “polyreactivity (PSR sort gate)” value does the source give for “QVQLVESVGGLVQAGGSLRLSCAASGITFRYYAMGWYRQAPGKERELVADINRGSDTNYADSVKGRFTISRDNAKNTVYLQMNSLKPEDTAVYYCAARSFRSRFRLYIVEFGGYDYWGQGTQVTVSS” here?
Answer: low polyreactivity

Question: For “QVQLVESVGGLVQAGGSLRLSCAASGLIFATYAMGWYRQAPGKESELVADITTTGSTYYADSVKGRFTISRDNAKNTDYLQMNSLKPEATAVYYCAAYCRLLSGYDFDYWGKGTQVTVSS”, which “polyreactivity (PSR sort gate)” value is on record?
Answer: high polyreactivity

Question: Which “polyreactivity (PSR sort gate)” value does the source give for “QVQLVESVGGLVQAGGSLRLSCAASGLTSGLNAMGWYRQAPGKERELVATIRTNGGSTYYADSVKGRFTISRDNAKNTVYLQMNSLKPEDTAVYYCAADSVLDRPVLYLWPWYLGDYWGQGTQVTVSS” here?
Answer: low polyreactivity

Question: With “QVQLVESVGGLVQAGGSLRLSCAASGNNFDIYDMGWYRQAPGKERELVAAISSGGSTYYADSVKGRFTISRDTAKNTVYFQMNSLKPEDSAVYYCAESRVGYYRYEYWGQGTQVTVSS” as the sequence, how does the “polyreactivity (PSR sort gate)” value read?
Answer: low polyreactivity

Question: Which “polyreactivity (PSR sort gate)” value does the source give for “QVQLVESVGGLVQAGGSLRLSCAASGNTFSYNAMGWYRQAPGKERELVAAIRWSGGSTYYADSVKGRFTISRDNAKNTVYLQMNSLKPEDTAVYYCNARYASTNYGWFSYYWGQGTQVTVSS” here?
Answer: high polyreactivity

Question: For “QVQLVESVGGLVQAGGSLRLSCAASGRIFAVYAMGWYRQAPGKEREFVAAISYSGGITYYADSVKGRFTISRDNAKNTVYLQMNSLKPEDTAVYYCNAYYYFWGQGTQVTVSS”, which “polyreactivity (PSR sort gate)” value is on record?
Answer: low polyreactivity
